To fix the notation:
B1: Vps11 (CORVET and HOPS core subunit) (natural protein, yeast)
chain: MSLSSWRQFQLFENIPIRDPNFGGDSLLYSDPTLCAATIVDPQTLIIAVNSNIIKVVKLNQSQVIHEFQSFPHDFQITFLKVINGEFLVALAESIGKPSLIRVYKLEKLPNREQLYHSQVELKNGNNTYPISVVSISNDLSCIVVGFINGKIILIRGDISRDRGSQQRIIYEDPSKEPITALFLNNDATACFAATTSRILLFNTTGRNRGRPSLVLNSKNGLDLNCGSFNPATNEFICCLSNFIEFFSSSGKKHQFAFDLSLRKRIFCVDKDHILIVTEETGVPTTSISVNELSPTIINRIFIIDAKNKIISLNFVVSSAIIDIFSTSQSGKNITYLLTSEGVMHRITPKSLENQINIIIQKELYPFALQLAKQHSLSPLDVQEIHKKYGDYLFKKGLRKEATDQYIQCLDVVETSEIISKFGVKEVPDPESMRNLADYLWSLIKNSISQRDHVTLLLIVLIKLKDVEGIDTFIQHFDRKGIWNEGVVMDDMDDVTFFYSDNDFFDLDLILELMKESDFKRLSYRLAKKYSKDSLIIVDILLNLLHNPVKAIKYIKSLPIDETLRCLVTYSKKLLEESPNETNALLIEVFTGKFKPSTFEVDLDRRDTTGDFSENIRTVFYSYKTFFNYMNSNGTSDAMSESSEASHEHEEPTYHPPKPSIVFSSFVTKPFEFVVFLEACLACYQQYEGFDEDRQVILTTLYDLYLNLAQNDVPERIDDWRSRATGVLRESNKLVYSAASNNTSKRVDNSIMLLISHMDQSSASAKDKTKIDIASFANDNPEMDLLSTFRAMTLNEEPSTCLKFLEKYGTEEPKLLQVALSYFVSNKLIFKEMGGNEVLKEKVLRPIIEGERMPLLDIIKALSRTNVAHFGLIQDIIIDHVKTEDTEIKRNEKLIESYDKELKEKNKKLKNTINSDQPLHVPLKNQTCFMCRLTLDIPVVFFKCGHIYHQHCLNEEEDTLESERKLFKCPKCLVDLETSNKLFEAQHEVVEKNDLLNFALNSEEGSRDRFKVITEFLGRGAISYSDITI
notes: Vps11, yeast, core subunit shared by CORVET and HOPS

The target in assay [1] is T1, Vps8 with 3xFLAG tag (CORVET subunit) (yeast, UniProt P39702 1-1274).
T1 construct: UniProt P39702 printed for its AlphaFold model
T1 sequence: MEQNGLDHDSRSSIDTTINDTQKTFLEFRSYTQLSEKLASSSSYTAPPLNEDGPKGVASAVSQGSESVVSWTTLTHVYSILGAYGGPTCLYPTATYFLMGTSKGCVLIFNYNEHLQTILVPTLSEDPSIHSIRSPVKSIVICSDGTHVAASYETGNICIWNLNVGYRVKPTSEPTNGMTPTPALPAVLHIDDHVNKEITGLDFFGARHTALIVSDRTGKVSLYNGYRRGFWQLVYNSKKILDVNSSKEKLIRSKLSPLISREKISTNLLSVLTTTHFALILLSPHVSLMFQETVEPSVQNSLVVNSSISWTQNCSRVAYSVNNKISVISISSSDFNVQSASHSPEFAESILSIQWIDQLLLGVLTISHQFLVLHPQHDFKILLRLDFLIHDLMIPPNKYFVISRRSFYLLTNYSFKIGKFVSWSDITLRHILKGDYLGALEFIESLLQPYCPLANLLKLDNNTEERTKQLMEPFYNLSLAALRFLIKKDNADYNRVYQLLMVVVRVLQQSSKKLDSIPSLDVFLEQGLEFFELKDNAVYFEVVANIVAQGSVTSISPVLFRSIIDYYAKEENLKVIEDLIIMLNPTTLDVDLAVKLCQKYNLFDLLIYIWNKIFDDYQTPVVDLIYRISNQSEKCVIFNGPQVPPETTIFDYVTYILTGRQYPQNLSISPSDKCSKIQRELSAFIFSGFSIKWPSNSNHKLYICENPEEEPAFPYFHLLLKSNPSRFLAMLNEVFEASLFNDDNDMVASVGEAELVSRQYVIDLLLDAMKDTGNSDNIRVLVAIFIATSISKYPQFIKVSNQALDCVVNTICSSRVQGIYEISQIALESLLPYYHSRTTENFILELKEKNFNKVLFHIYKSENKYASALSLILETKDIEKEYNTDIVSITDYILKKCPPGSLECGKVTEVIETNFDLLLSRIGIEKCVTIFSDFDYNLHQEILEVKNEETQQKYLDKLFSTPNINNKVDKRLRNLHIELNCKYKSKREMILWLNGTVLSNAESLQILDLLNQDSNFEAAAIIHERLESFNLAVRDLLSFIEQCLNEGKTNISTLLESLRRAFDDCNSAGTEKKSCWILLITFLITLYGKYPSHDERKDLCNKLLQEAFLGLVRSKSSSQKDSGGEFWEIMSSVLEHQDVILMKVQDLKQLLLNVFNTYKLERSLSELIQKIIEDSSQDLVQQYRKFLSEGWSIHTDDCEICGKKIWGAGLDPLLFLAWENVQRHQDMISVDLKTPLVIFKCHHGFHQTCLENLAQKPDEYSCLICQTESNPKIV
Briefly: cryo-EM structure; single-particle cryo-EM of the hexameric CORVET co-expressed in yeast and purified by 3xFLAG on Vps8 and SEC; about 0.8 mg/ml; consensus map 4.6 Å, local refinements to 3.8 Å. Particulars: both partners purified.

The target in assay [2] is B1. The description is as above. Particulars: both partners purified.

Take B1: in assay [1], the binding result is listed as “binds”.

B2: Vps3 (CORVET subunit) (natural protein, yeast)
chain: MVKKKTNNDKGKEVKENEGKLDIDSESSPHERENDKKKTEDDSLRATESEETNTHNANPNETVRADKFSQEESRPIEDSPHTDKNTAQESCQPSSAEDNVINTDITSLNEKTSTNDEQEKGLPLKISEGPFTISTLLDNVPSDLIYTCCEAYENHIFLGTTTGDLLHYFELERGNYMLVSQTKFDAESNSKIDKILLLPKVEGALILCDNELVLFILPEFAPRPNTTRLKGISDVVICNFSRSSKAYRIYAFHAEGVRLLKISADSLVLTKAFNFKLIDKACAHEETLMVSKLNSYELINLKSSQVIPLFRISETDEDLEPIITSFNEQSEFLVCSGGGSYDSGAMALVVNHHGDIIKGTIVLKNYPRNVIVEFPYIIAESAFQSVDIYSALPSEKSQLLQSITTSGSDLKISKSDNVFTNTNNSEEFKEKIFNKLRLEPLTHSDNKFRIERERAFVEESYEEKTSLIVYNNLGIHLLVPTPMVLRFTSCEESEIDNIEDQLKKLAKKDLTKFEHIEAKYLMSLLLFLMTLHYDHIEDEVMKKWCDFSDKVDIRILFYMFGWKVYSEIWCFHGLINIVERLKSLKLTNKCENILKMLLMMKNELKKKNKTGLLTNDFDDIMKTIDITLFKLRLEKKETITVDMFERESYDEIIREINLHDDKLPRIELLIEIYKEKGEYLKALNLLREAGDYISLVSFIEENLKKLPEDYIKERIADDLLLTLKQGDENTEECAIKKVLKILDMACINKNDFLNKIPAEETSLKVSFIEQLGVQNSNDSKFLFNYYLAKLREIINQSNIWSILGDFIKEYKDDFAYDKTDITNFIHIKLKHSLQCENFSKYYEKCENLKSENEKDDEFINFTFDEISKIDKEHILTLLFFPNELTNWVSSEELLKIYLSFNDFRSVEKYIGKQNLVAVMKQYLDISSLNYSVELVTNLLQRNFELLDDTDIQLKILETIPSVFPVQTISELLLKVLIKYQEKKEESNLRKCLLKNQISISDELSRNFDSQG
notes: UniProt P23643 printed for its AlphaFold model; N-terminal half (with the β-propeller) was removed from the deposited model; source: yeast lysate in the Vps8-ALFA pull-downs
Turning to B2, the binding result in assay [2] is on record as “binds”.

The values are drawn from PMC11187117, “Structure of the endosomal CORVET tethering complex” (Nature Communications, 2024).
